Measurements published in patent US20120045393A1 (priority 2009, published 2012).
Entries after “also recorded” stand apart in the source; their conditions may differ. Where two headings read alike, the source gives them in different places. Non-standard residues stand in square brackets, D forms with d. *: point of attachment. Bpa = N[C@@H](Cc1ccc(C(=O)c2ccccc2)cc1)C(=O)O; d2Nal = N[C@H](Cc1ccc2ccccc2c1)C(=O)O; pGlu = O=C1CC[C@@H](C(=O)O)N1; DO3A10CM = not defined here; Hpgly = not defined here; Mogly = not defined here; Tha = not defined here; azaGly = NNC(=O)O; Sar = CNCC(=O)O; 125I = [125I]*

What was measured:
liver homogenate = conditions: female Tac:NCr:Foxn1^nu/nu mice, 37° C., up to 60 min
kidney homogenate = conditions: female Tac:NCr:Foxn1^nu/nu mice, 37° C., up to 60 min
[1] = kidney homogenate stock solution; conditions: female Tac:NCr:Foxn1^nu/nu mice, 37° C., up to 60 min
[2] = plasma (blood) and urine samples collected post injection in normal mice; conditions: up to 60 min post injection
[3] = system: LHRH-II-receptor-positive but LHRH-1-receptor-negative ovarian SK-OV-3 cell lines; conditions: cited from earlier work
[4] = target: LHRH receptor (LHRH binding sites) on EFO-27 human ovarian cancer cells (human); assay: saturation binding to EFO-27 cells, single-site fit
[5] = target: LHRH receptor (LHRH binding sites) on EFO-27 human ovarian cancer cells (human); assay: internalization/efflux study, cell-associated radioactivity, EFO-27 cells
[6] = target: LHRH receptor (LHRH binding sites) on EFO-27 human ovarian cancer cells (human); assay: direct binding of 177Lu-labeled peptide to EFO-27 cells, single concentration
[7] = target: LHRH receptor (LHRH binding sites) on EFO-27 human ovarian cancer cells (human); assay: internalization/efflux study, cell-associated radioactivity, EFO-27 cells, 205 fmoles added/well
[8] = target: LHRH receptor (LHRH binding sites) on EFO-27 human ovarian cancer cells (human); assay: internalization/efflux study, cell-associated radioactivity, EFO-27 cells, 156 fmoles added/well
[9] = target: LHRH receptor (LHRH binding sites) on EFO-27 human ovarian cancer cells (human); assay: internalization/efflux study, cell-associated radioactivity, EFO-27 cells, 203 fmoles added/well
[10] = target: LHRH receptor (LHRH binding sites) on PC-3 human prostate cancer cells (human); assay: internalization/efflux study, cell-associated radioactivity, PC-3 cells
[11] = target: LHRH receptor (LHRH binding sites) on PC-3 human prostate cancer cells (human); assay: internalization/efflux study, cell-associated radioactivity, PC-3 cells, 230 fmoles added/well
[12] = target: LHRH receptor (LHRH binding sites) on EFO-27 human ovarian cancer cells (human); assay: internalization/efflux study, cell-associated radioactivity, EFO-27 cells, 212 fmoles added/well
[13] = target: LHRH receptor (LHRH binding sites) on EFO-27 human ovarian cancer cells (human); assay: internalization/efflux study, cell-associated radioactivity, EFO-27 cells, 292 fmoles added/well
[14] = target: LHRH receptor (LHRH binding sites) on EFO-27 human ovarian cancer cells (human); assay: internalization/efflux study, cell-associated radioactivity, EFO-27 cells, 78 fmoles added/well
[15] = target: T1, LHRH binding sites on EFO-27 human ovarian cancer cells (human); assay: competition with [125I-Tyr8]BRU-2477 on EFO-27 cells
T1 chain: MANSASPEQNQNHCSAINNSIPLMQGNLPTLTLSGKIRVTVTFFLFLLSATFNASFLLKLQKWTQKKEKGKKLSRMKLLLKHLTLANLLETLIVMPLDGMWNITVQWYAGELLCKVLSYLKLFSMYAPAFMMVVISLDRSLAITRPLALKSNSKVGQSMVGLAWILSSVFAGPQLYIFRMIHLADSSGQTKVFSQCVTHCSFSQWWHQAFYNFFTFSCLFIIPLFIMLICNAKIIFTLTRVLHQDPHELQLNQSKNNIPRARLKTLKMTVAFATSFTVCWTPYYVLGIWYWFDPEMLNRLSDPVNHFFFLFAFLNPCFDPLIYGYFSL

[16] = target: T1, LHRH binding sites (presumed LHRH …); assay: as above
[17] = target: T1, LHRH binding sites (presumed LHRH …); assay: as above
[18] = target: T1, LHRH binding sites (presumed LHRH …); assay: as above
[19] = target: T1, LHRH binding sites (presumed LHRH …); assay: as above
[20] = target: T1, LHRH binding sites (presumed LHRH …); assay: as above
[21] = target: T1, LHRH binding sites (presumed LHRH …); assay: as above

Lu-DOTA-Dnal2-Arg-Trp-Ser-His-Darg-Trp-Bpa4-Pro-azaGly-NH2
cleaved bond (liver homogenate): Bpa48-Pro9, major
cleaved bond (kidney homogenate): Bpa48-Pro9, major
cleaved bond [1]: Bpa48-Pro9, major; also recorded: Trp7-Bpa48, major
cleaved bond [2]: Bpa48-Pro9, major
fragment found [2]: BRU-3046; BRU-2813[1-7]-OH

LHRH-II: native Chicken II LHRH: pGlu-His-Trp-Ser-His-Gly-Trp-Tyr-Pro-Gly-NH2 (EHWSHGWYPG; HELM PEPTIDE1{[Glp].H.W.S.H.G.W.Y.P.G.[am]}$$$$V2.0; SMILES NC(=O)CNC(=O)[C@@H]1CCCN1C(=O)[C@H](Cc1ccc(O)cc1)NC(=O)[C@H](Cc1c[nH]c2ccccc12)NC(=O)CNC(=O)[C@H](Cc1c[nH]cn1)NC(=O)[C@H](CO)NC(=O)[C@H](Cc1c[nH]c2ccccc12)NC(=O)[C@H](Cc1c[nH]cn1)NC(=O)[C@@H]1CCC(=O)N1)
antiproliferative effect [3]: showed antiproliferative effect

B1: ^177Lu-BRU-2666 (peptide)
peptide: XHWSHXWXPX
modifications: 177Lu held by the N-terminal DO3A10CM: 177Lu-DO3A10CM-Dnal2-His-Trp-Ser-His-Darg-Trp-Bpa4-Pro-azaGly-NH2
Kd [4]: 920 nM
Max. binding (Bmax) (pmoles/10^6 cells) [4]: 183
Receptors/cell (receptors/cell) [4]: 1.1e+08
Bound % [5]: 12.2%
% Bound [6]: 13.2%
Bound fmoles [7]: 25 fmol

[pGlu]HWSH[dR]WY(125I)P[azaGly]-NH2 [[Darg^6, ^125I-Tyr^8, azaGly^10]-LHRH-II]
Kd [4]: 1290 nM
Max. binding (Bmax) (pmoles/10^6 cells) [4]: 141
Receptors/cell (receptors/cell) [4]: 8.5e+07
Bound % [5]: 1.2%
Bound fmoles [8]: 1.87 fmol

B2: ^177Lu-BRU-2797 (peptide)
peptide: DO3A10CM-G[Hpgly]HWSH[dR]W[Bpa]P[azaGly]-NH2
modifications: reading uncertain; also: 177Lu complexed by DO3A10CM, printed as 177Lu-DO3A10CM-Gly-Hpgly-His-Trp-Ser-His-Darg-Trp-Bpa4-Pro-azaGly-NH2
Bound % [5]: 2.02%
% Bound [6]: 4.64%
Bound fmoles [9]: 4.1 fmol

B3: ^177Lu-BRU-2813 (peptide)
peptide: XRWSHXWXPX
modifications: 177Lu held by the N-terminal DO3A10CM: 177Lu-DO3A10CM-Dnal2-Arg-Trp-Ser-His-Darg-Trp-Bpa4-Pro-azaGly-NH2
Bound % [10]: 19.3%
Bound % [5]: 19.1%
% Bound [6]: 18.8%
Bound fmoles [11]: 44.3 fmol
Bound fmoles [12]: 40.5 fmol

B4: ^177Lu-BRU-2968 (peptide)
peptide: XRWSHXWXP
modifications: 177Lu held by the N-terminal DO3A10CM: 177Lu-DO3A10CM-Dnal2-Arg-Trp-Ser-His-Darg-Trp-Bpa4-Pro-Da15o3pt
Bound % [5]: 23.6%
% Bound [6]: 23.5%
Bound fmoles [13]: 68.8 fmol

B5: ^177Lu-BRU-2796 (peptide)
peptide: DO3A10CM-G[Mogly]HWSH[dR]W[Bpa]P[azaGly]-NH2
modifications: reading uncertain; also: 177Lu complexed by DO3A10CM, printed as 177Lu-DO3A10CM-Gly-Mogly-His-Trp-Ser-His-Darg-Trp-Bpa4-Pro-azaGly-NH2
Bound % [5]: 1.2%
Bound fmoles [14]: 0.93 fmol

B6: BRU-3046 (peptide)
peptide: XRWSHXW
modifications: DO3A10CM on N-terminus; AA1 Dnal2; AA6 Darg; AA8-AA10 absent; C-terminal free acid
EC50 [15]: 15.9 µM
EC50 [16]: 15.9 µM

DO3A10CM-[Sar]HWS[Tha][dR]W[Bpa]P[azaGly]-NH2 (reading uncertain) [BRU-2769]
fold lower binding potency than BRU-2443 [17]: ~8 fold
EC50 [18]: 7.34 µM

DO3A10CM-[Sar]HWSH[dR]WWP[azaGly]-NH2 (reading uncertain, AA8 Trp) [BRU-2724]
EC50 [19]: 2670 nM
EC50 [20]: 2670 nM

DO3A10CM-[d2Nal]RESH[dR]W[Bpa]P[azaGly]-NH2 (reading uncertain, AA3 Glu) [BRU-3110]
fold lower binding potency than BRU-2813 [17]: ~8 fold
EC50 [21]: 2600 nM
